Consider ten molecules from patent US20210317204A1 (ALMAC DISCOVERY, published 2021).

Substitutions are numbered along the chain they refer to.

Experiment [1] deals with T1, D3 VNAR.
T1 construct: shark VNAR domain; also called D3 WT; D3 monomer; not shown: C-terminal His6 or His6Myc tag (His6Myc in flow cytometry)
Briefly: competition ELISA: D3 pre-incubated with the peptide (25% DMSO), residual binding to coated huROR1-Fc. (In general: An ELISA detects its analyte on a solid surface through an enzyme-linked reagent.)

The target in experiment [2] is T2, D3-[G4S]5-D3 homodimer.
T2 construct: also called D3-D3; D3D3; not shown: C-terminal His6 or His6Myc tag (His6Myc in flow cytometry)
Briefly: competition ELISA: D3-D3 pre-incubated with the peptide (25% DMSO), residual binding to coated huROR1-Fc.

The target of experiment [3] is T3, B1 VNAR (C-terminal His6 or His6Myc tag, not said which).
T3 construct: shark VNAR domain; also called VNAR B1; B1 monomer
Briefly: competition ELISA: B1 pre-incubated with the peptide, residual binding to coated huROR1-Fc.

For experiment [4], the target named is T3, B1 VNAR (C-terminal His6 or His6Myc …). Briefly: competition ELISA: VNAR pre-incubated with peptide 5, residual binding to coated huROR1-Fc [continued].
The target of experiment [5] is T1, D3 VNAR. The experiment is described as above.
The target of experiment [6] is T2, D3-[G4S]5-D3 homodimer. The description is as above.
Experiment [7] deals with T4, rat ROR1 extracellular domain-Fc fusion (rat, UniProt D3ZZ97 30-406).
T4 construct: extracellular domain; also called rROR1
Briefly: SPR, rROR1 on chip. (In general: In SPR one partner is held on a chip, and binding of the other changes the refractive index at the surface.)

The target in experiment [8] is T5, human ROR2 extracellular domain-Fc fusion (human, UniProt Q01974 34-403).
T5 construct: extracellular domain; also called hROR2; ROR2-hFc
Briefly: ELISA on coated human ROR2-Fc.

The target of experiment [9] is T6, mouse ROR1 extracellular domain-Fc fusion (mouse, UniProt Q9Z139 30-406).
T6 construct: extracellular domain; also called mROR1; mouse ROR1-Fc
Briefly: SPR, mROR1 on chip.

Experiment [10] concerns the target T4, rat ROR1 extracellular domain-Fc fusion. Briefly: ELISA on coated rat ROR1-Fc.
Experiment [11] has as its target T7, human ROR1 extracellular domain-Fc fusion (human, UniProt Q01973 30-406).
T7 construct: extracellular domain; also called hROR1; ROR1-hFc
Briefly: SPR, ROR1-hFc on chip; E. coli.

Experiment [12] concerns the target T7, human ROR1 extracellular domain-Fc …. Briefly: SPR.
The target of experiment [13] is T5, human ROR2 extracellular domain-Fc …. Briefly: SPR.
Experiment [14] has the same target. Briefly: SPR. The source holds these as a separate data set.
A further experiment addresses T8, rat serum albumin (rat, UniProt P02770 25-608).
T8 construct: also called RSA
Briefly: SPR, albumin on chip.

The next experiment addresses T9, mouse serum albumin (mouse, UniProt P07724 25-608).
T9 construct: also called MSA
Briefly: SPR, albumin on chip.

T3 sequence (chain, as listed by the source): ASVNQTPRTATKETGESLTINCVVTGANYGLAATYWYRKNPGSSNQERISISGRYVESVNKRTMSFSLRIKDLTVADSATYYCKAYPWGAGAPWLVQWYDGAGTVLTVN
T1 sequence (chain, as listed by the source): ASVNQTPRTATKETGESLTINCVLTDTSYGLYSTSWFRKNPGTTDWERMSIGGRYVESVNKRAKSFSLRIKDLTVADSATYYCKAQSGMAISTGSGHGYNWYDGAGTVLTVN
T6 sequence (Q9Z139 30-406): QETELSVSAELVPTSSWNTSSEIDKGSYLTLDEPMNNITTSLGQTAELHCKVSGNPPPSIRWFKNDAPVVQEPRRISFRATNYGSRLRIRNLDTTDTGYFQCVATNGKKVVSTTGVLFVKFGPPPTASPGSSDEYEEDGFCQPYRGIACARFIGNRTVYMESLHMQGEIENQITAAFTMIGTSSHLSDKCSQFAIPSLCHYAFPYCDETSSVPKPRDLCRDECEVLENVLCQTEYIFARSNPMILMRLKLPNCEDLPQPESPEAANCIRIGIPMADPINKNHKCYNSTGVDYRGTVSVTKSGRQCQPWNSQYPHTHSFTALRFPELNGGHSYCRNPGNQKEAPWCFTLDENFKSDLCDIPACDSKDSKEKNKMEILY
T2 sequence (chain, as listed by the source): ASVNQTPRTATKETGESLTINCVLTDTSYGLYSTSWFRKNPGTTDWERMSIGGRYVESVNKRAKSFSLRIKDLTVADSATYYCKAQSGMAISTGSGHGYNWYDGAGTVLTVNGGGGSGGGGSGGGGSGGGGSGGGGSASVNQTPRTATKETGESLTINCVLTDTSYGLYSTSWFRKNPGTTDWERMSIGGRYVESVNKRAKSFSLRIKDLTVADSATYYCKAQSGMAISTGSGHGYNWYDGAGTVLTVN
T8 sequence (P02770 25-608 limits assumed): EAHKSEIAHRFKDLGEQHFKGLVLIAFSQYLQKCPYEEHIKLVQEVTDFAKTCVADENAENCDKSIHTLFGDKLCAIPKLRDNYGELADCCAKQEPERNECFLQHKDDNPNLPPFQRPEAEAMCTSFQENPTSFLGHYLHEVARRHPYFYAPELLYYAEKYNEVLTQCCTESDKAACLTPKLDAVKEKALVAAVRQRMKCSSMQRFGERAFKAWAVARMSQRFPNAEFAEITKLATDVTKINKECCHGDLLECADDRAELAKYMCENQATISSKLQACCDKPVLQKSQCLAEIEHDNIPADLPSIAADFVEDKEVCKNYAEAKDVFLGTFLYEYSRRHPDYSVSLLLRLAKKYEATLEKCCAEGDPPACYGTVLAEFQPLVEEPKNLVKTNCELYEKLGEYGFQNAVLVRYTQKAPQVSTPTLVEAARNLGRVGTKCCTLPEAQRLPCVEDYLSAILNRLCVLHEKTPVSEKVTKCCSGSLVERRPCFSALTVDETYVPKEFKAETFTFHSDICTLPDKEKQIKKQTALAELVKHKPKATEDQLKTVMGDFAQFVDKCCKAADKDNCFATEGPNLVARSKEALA
T9 sequence (P07724 25-608 limits assumed): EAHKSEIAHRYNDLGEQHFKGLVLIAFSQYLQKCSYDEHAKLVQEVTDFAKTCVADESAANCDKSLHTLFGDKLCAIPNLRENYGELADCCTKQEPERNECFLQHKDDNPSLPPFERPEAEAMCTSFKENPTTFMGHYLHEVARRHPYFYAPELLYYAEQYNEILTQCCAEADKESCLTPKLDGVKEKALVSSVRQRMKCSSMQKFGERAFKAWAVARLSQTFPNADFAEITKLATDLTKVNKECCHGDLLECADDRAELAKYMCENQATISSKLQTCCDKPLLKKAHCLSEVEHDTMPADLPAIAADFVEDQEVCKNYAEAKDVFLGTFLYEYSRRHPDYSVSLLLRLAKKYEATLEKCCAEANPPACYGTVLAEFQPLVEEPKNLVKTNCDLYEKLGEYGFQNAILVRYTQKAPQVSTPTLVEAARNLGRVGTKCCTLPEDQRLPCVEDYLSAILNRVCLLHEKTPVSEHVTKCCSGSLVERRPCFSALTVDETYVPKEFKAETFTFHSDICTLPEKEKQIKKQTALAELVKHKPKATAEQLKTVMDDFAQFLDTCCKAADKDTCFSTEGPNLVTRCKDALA

B1: ROR1 ECD Peptide 4 (peptide)
peptide: QCVATNGKEVVSSTGVLFVKFGPPPTASPGYSDEYE
notes: synthetic linear peptide
B1: the values for the binding result (with D3 VNAR [1]; with D3-[G4S]5-D3 homodimer [2]; in experiment [3]) were “no binding”, “no binding” and “no binding (tested: 10 uM)”, respectively.

B2: peptide 5 (peptide)
peptide: RSTIYGSRLRIRNLDTTDTGYFQ
notes: also called ROR1 ECD Peptide 5
As to B2, the binding result (in [4]; with D3 VNAR [5]; in the experiment with D3-[G4S]5-D3 homodimer [6]) was “no binding (tested: 1000 nM)” in each case.

B3: ROR1 ECD Peptide 3 (peptide)
peptide: CQPWNSQYPHTHTFTALRFP
notes: synthetic linear peptide
In the case of B3, the binding result in the experiment with D3 VNAR [1] is given as “no binding”; with D3-[G4S]5-D3 homodimer [2], “no binding”; in experiment [3] it was “no binding (tested: 10 uM)”.

B4: P3A1 VNAR (C-terminal His6 or His6Myc tag, not said which) (VNAR, not shown: small tags and cut ends)
VNAR: TRVDQTPRTATKETGESLTINCVLTDTSYGLYSTSWFRKNPGTTDWERMSIGGRYVESVNKGAKSFSLRIKDLTVADSATYYCKAREARHPWLRQWYDGAGTVLTVN
notes: shark VNAR domain; also called P3A1 monomer
B4: in [7], the affinity, expressed as Kd, was 17.7 nM; the koff (as a rule, the first-order rate constant of dissociation) was 0.045 s⁻¹; the kon (as a rule, the rate constant with which the complex forms) was 2.86e+06 M⁻¹ s⁻¹. For the same molecule, the binding result in [8] is “no binding (tested: 10 ug/ml)”. Moreover, in experiment [9], binding was characterised by a dissociation constant (Kd) of 14.3 nM, the koff is 0.0408 s⁻¹ and the kon is 2.95e+06 M⁻¹ s⁻¹. Also, the EC50 (read off the curve) (usually the concentration at which the effect is half-maximal) in [10] is roughly 0.3 µg/mL. Moreover, in experiment [11], the Kd (in general, the free concentration of one partner at which half of the binding sites on the other are occupied at equilibrium, for simple one-to-one binding) is 19.1 nM; the koff amounted to 0.0442 s⁻¹; the kon was found to be 2.47e+06 M⁻¹ s⁻¹.

B5: P3A1 VNAR with 6xHis tag (VNAR, not shown: small tags and cut ends)
VNAR: B4 VNAR
notes: shark VNAR domain; also called P3A1 6xHis
In experiment [12], B5 had a dissociation constant Kd of 7.8 nM, an off-rate constant (koff) of 0.0206 s⁻¹ and a kon of 2.92e+06 M⁻¹ s⁻¹. For the same molecule, the binding result in [13] is reported as “no binding”.

B6: 2V control VNAR (VNAR, not shown: small tags and cut ends)
VNAR: B4 VNAR with R86Q, E87S, A88L, R89A, H90I, P91S, W92T, L93R, R94S, Q95Y
notes: control VNAR from a naive library, no known target; also called 2V monomer
Regarding B6, the binding result (in [7]; in experiment [14]; with rat serum albumin; in the experiment with mouse serum albumin; in [9]) was “no binding” throughout.

B7: ROR1 ECD Peptide 1 (peptide)
peptide: YMESLHMQGEIENQI
notes: synthetic linear peptide
Consider B7, for which the binding result with D3 VNAR [1] was “no binding”; in the experiment with D3-[G4S]5-D3 homodimer [2] it was “no binding”; in [3], “no binding (tested: 10 uM)”.

B8: ROR1 ECD Peptide 2 (peptide)
peptide: RSTIYGSRLRINLDTTDTGYFQ
notes: synthetic linear peptide; insoluble in PBS, repeated in 25% DMSO
For the molecule B8, the binding result is recorded as “no binding” with D3 VNAR [1], “no binding” with D3-[G4S]5-D3 homodimer [2] and “no binding (tested: 10 uM)” in [3].

B9: P3A1 dimer without tag (VNAR)
chain: TRVDQTPRTATKETGESLTINCVLTDTSYGLYSTSWFRKNPGTTDWERMSIGGRYVESVNKGAKSFSLRIKDLTVADSATYYCKAREARHPWLRQWYDGAGTVLTVNGGGGSGGGGSGGGGSGGGGSGGGGSTRVDQTPRTATKETGESLTINCVLTDTSYGLYSTSWFRKNPGTTDWERMSIGGRYVESVNKGAKSFSLRIKDLTVADSATYYCKAREARHPWLRQWYDGAGTVLTVN
notes: also called P3A1 dimer No tag
In [12], B9 returned an equilibrium dissociation constant (Kd) of 0.36 nM, a koff of 0.000598 s⁻¹ and an on-rate constant (kon) of 1.67e+06 M⁻¹ s⁻¹. Also, the binding result in experiment [13] is recorded as “no binding”.

B10: P3A1 VNAR with His6Myc tag (VNAR)
VNAR: TRVDQTPRTATKETGESLTINCVLTDTSYGLYSTSWFRKNPGTTDWERMSIGGRYVESVNKGAKSFSLRIKDLTVADSATYYCKAREARHPWLRQWYDGAGTVLTVNQ
notes: shark VNAR domain; also called P3A1 6xHis myc
In experiment [12], B10 showed a dissociation constant (Kd) of 25.6 nM, a koff of 0.025 s⁻¹ and a kon of 980000 M⁻¹ s⁻¹. In addition, the binding result in experiment [13] is “no binding”.
